Measurements taken from FireProtDB (doi:10.1006/jmbi.2001.4521).

Details: Drosophila melanogaster, pH 6, Thermal, CD, phosphate 50 mM, Na2SO4 0.4 M, whole UniProt chain shown

B1: Growth factor receptor-bound protein 2 wild type, Q08012 (protein)
chain: MEAIAKHDFSATADDELSFRKTQILKILNMEDDSNWYRAELDGKEGLIPSNYIEMKNHDWYYGRITRADAEKLLSNKHEGAFLIRISESSPGDFSLSVKCPDGVQHFKVLRDAQSKFFLWVVKFNSLNELVEYHRTASVSRSQDVKLRDMIPEEMLVQALYDFVPQESGELDFRRGDVITVTDRSDENWWNGEIGNRKGIFPATYVTPYHS
For B1, the unfolding free energy (25 °C) was 7.53 kJ/mol and the Tm was 63.7 °C.
